# Target: fluorophore-conjugated GCK peptide (aa 59-74), wild type (human) (UniProt P35557)
# Assay: fluorescence polarisation
substance,measurement,value
TNKS ARC1-5 with a C-terminal (His)6 tag (from UniProt O95271 1-1327) (domain or fragment),Kd,500 nM

# Reference: article doi:10.1101/2021.08.08.454510
